Data on seven molecules can be found in US10758613B2, “Combination therapies using anti-metabolites and agents that target tumor-associated stroma or tumor cells” (BIOMED VALLEY DISCOVERIES, INC., priority 2014, dated 2020).

Where a SMILES comes first, the peptide text is derived from it. [ ]: non-standard residue; d: D form. The star is where a group is joined. Dolaproine = CO[C@@H]([C@@H]1CCCN1)[C@@H](C)C(=O)O; Dil = CC[C@H](C)[C@H](NC)[C@@H](CC(=O)O)OC; X1 = C[C@@H](N*)[C@@H](O)c1ccccc1; NMeV = CN[C@H](C(=O)O)C(C)C

Series [1] relates to H460 human non-small cell lung carcinoma xenograft. Put plainly: M830 alone and with gemcitabine, cisplatin or radiation in H460 human non-small cell lung carcinoma xenograft model. Format: in vivo, nude mice. Conditions: 58-day study, survival (TTE), logrank. The source says: (§1) The statistical tests were not adjusted for multiple comparisons.
Treatment began on Day 1 in eight groups of nude mice (n=10) with established subcutaneous H460 tumors of 75-126 mm^3. […] The study endpoint was a tumor volume of 2000 mm^3 or the final day, Day 58, whichever came first. […] The median TTE for controls was 15.6 days, establishing a maximum possible TGD of 42.4 days (272%) for the 58-day study.

The test system of series [2] is OVCAR3 ovarian cancer model. Put plainly: M825 and M825-MMAE in OVCAR3 ovarian cancer model. Format: in vivo, mice. The settings on record: free MMAE at 0.2 mg/kg, equivalent to maximum MMAE in the 10 mg/kg ADC group. Here is the method:
Treatment initiated when tumor volume reached approximately 120 mm^3. M825 was given i.v. at 10 mg/kg and M825-MMAE was given i.v. at 1, 3, or 10 mg/kg, 2 times per week for 3.5 weeks. […] The 10 mg/kg ADC group was redosed on Day 56, 2 times per week.

The next series relates to 3T3 fibroblasts. Put plainly: Contractility of 3T3 fibroblasts in the presence of TGFb-1. Format: cell-based. Here is the method:
3T3 cells were cultured and contractility in the presence of TGFb-1 was measured in control or M825 exposed cells. […] Contractile forces are thought to contribute to increased cancer cell invasion.

The target in a further series is hTEM8-AP. Put plainly: Biocore affinity measurements of anti-TEM8 Fabs, hTEM8-AP. Format: binding, human. The settings on record: Fab.
A short description of series [3]: Pharmacokinetics of TEM8 antibodies in mouse, single dose. Format: in vivo. The text has this: (§2) Tables 8 and 9 show pharmacokinetic properties of TEM8 antibodies according to the present invention in mouse for single dose (Table 8) and multiple dose (Table 9) treatments.
Series [4] can be described thus: Pharmacokinetics of TEM8 antibodies in mouse, multiple dose. Format: in vivo.
Text: as §2

A further series deals with UACC melanoma cells. Put plainly: TEM8 antibody efficacy in UACC melanoma model. It is filed as in vivo, mice. The settings on record: 15 mg/kg, 3 times per week for 3-4 weeks; treatment initiated at 50 mm^3. Here is the method: UACC melanoma cells were cultured and injected subcutaneously into mice. Treatment was initiated with a tumor volume of 50 mm^3, and treatment groups consisted of one of four TEM8 antibodies (M825, M830, M863, and M822), each dosed at 15 mg/kg, 3 times per week for 3-4 weeks.

Series [5] concerns H460 non-small cell lung carcinoma xenograft. Put plainly: M830 alone and with bevacizumab or paclitaxel in the H460 non-small cell lung carcinoma xenograft model. Format: in vivo, athymic nude mice. The settings on record: combination partner Paclitaxel. Here is the method:
Animals were monitored for regression responses.
as §1
Cultured H460 cells were harvested during exponential growth and resuspended in phosphate buffered saline at a concentration of 1×10^8 cells/mL. 1.0×10^7 tumor cells were injected subcutaneously into the flank of athymic nude mice. Animals were euthanized when tumors reached the pre-determined volume endpoint of 2000 mm^3 or on the final day (Day 88), whichever came first. […] Each treatment produced a significant survival difference versus controls (P<0.01). The median TTE for controls was 22.8 days, establishing a maximum possible TGD of 65.2 days (286%) for the 88-day study.

The next series deals with FcγRIIIa (CD16a) (Homo sapiens, UniProt P08637). Put plainly: Binding of M830 Fc mutant to FcγRIIIa (ADCC). Conditions: Fc mutant form compared with M830. The source says: Fc mutations which increase ADCC are known in the art. For example, substitutions in the IgG constant region such as S239D, A330L, and I332E are known to increase binding to the FCy receptor. (see, e.g., Lazar et al., Proc. Natl., Acad. Sci. U.S.A., 103:4005-4010, 2006). In the present example, the M830 Fc S239D:I332E double mutant was generated and confirmed by standard molecular biology techniques (830M: S239D/I332E).
Sequence of FcγRIIIa (CD16a) (P08637 17-254): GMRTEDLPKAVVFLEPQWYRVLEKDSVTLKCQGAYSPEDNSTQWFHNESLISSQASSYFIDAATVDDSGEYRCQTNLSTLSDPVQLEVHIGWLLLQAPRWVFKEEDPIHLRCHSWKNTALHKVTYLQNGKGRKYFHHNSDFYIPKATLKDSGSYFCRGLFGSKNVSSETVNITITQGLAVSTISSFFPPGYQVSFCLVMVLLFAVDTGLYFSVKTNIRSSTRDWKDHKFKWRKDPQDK

Sequence of hTEM8-AP (Q9H6X2 33-321): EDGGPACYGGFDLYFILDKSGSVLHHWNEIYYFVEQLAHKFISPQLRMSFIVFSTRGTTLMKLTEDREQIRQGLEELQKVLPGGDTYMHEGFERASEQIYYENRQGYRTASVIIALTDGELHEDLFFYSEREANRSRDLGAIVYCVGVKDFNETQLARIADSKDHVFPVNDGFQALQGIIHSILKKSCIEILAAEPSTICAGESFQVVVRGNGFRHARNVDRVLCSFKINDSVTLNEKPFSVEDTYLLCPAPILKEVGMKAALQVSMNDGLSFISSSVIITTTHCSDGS

For `N.N.[Cl][Pt][Cl]` [Cisplatin, cisplatin], the “outcome compared to vehicle-treated controls” value in [1] is given as “statistically significant survival benefit”.

With `CC[C@H](C)[C@@H]([C@@H](CC(=O)N1CCC[C@H]1[C@H](OC)[C@@H](C)C(=O)N[C@H](C)[C@@H](O)c1ccccc1)OC)N(C)C(=O)[C@@H](NC(=O)[C@@H](NC)C(C)C)C(C)C` [MMAE, reference compound] (H-[NMeV]V[Dil][Dolaproine]-X1), the “effect in OVCAR3 model” value in [2] is reported as “No effect”.

Take `Nc1ccn([C@@H]2O[C@H](CO)[C@@H](O)C2(F)F)c(=O)n1` [gemcitabine]: in series [1], the “outcome compared to vehicle-treated controls” value is on record as “not statistically different from vehicle-treated controls”.

A word on the Kd: it is the concentration at which binding is half-saturated. As for “M825: TEM8 monoclonal antibody (hIgG1); VH SEQ ID NO:1, VL SEQ ID NO:2 [Antibody M825]”, the “contractility of activated 3T3 fibroblasts in vitro” value in the series on 3T3 fibroblasts is “block the contractility”. Further, on hTEM8-AP, the dissociation constant Kd turned out to be 0.0591 nM. Further, the AUCI stood at 1310.519 µg·h/mL in series [3] (5 mg/kg), 9239.202 µg·h/mL in series [3] (15 mg/kg), 1408.345 µg·h/mL in [4] (5 mg/kg) and 21649.446 µg·h/mL in series [4] (15 mg/kg). Further, the AUCT came out at 1310.222 µg·h/mL in series [3] (5 mg/kg), 8991.767 µg·h/mL in series [3] (15 mg/kg), 1408.201 µg·h/mL in [4] (5 mg/kg) and 21648.879 µg·h/mL in series [4] (15 mg/kg).

B1: M830: TEM8 monoclonal antibody (hIgG1); VH SEQ ID NO:5, VL SEQ ID NO:6 (antibody, V domains shown)
VH: EVQLVESGGGVVQPGRSVRLSCAASGFTFSTYTMHWVRQAPGKGLEWVAIISNDGSNKYYADPVRGRFTISRDNSKNTLYLQMNSLRAEDTAVYYCVRGSSWYRGNWFDPWGQGTLVTVSS
VL: DIQMTQSPSSLSASVGDRVTIACRASQTISRYLNWYQQKPGKAPKLLIYAASSLQSGVSSRFSGSGSGTEFTLTISSLQPEDFATYFCQQTYSPPITFGQGTRLEIKR
modifications: TEM830 mAb VH; TEM830 mAb VL
B1: the “tumor growth in the UACC melanoma model” value in the series with UACC melanoma cells is reported as “effective at slowing tumor growth”. The affinity at hTEM8-AP, expressed as Kd, was 1.57 nM. Besides, the AUCI in [3] (5 mg/kg) stood at 2242.485 µg·h/mL; in series [3] (15 mg/kg) it was 10692.742 µg·h/mL; in [4] (5 mg/kg), 4316.79 µg·h/mL; in series [4] (15 mg/kg), 23053.875 µg·h/mL. Besides, the AUCT in [3] (5 mg/kg) is 2242.286 µg·h/mL; in series [3] (15 mg/kg) it was 10692.598 µg·h/mL; in [4] (5 mg/kg), 4315.918 µg·h/mL; in series [4] (15 mg/kg) it was 23052.853 µg·h/mL. In addition, in series [1], the “outcome compared to vehicle-treated controls” value is reported as “not statistically different from vehicle-treated controls”. Also, the “regression (with % Tumor Reduction vs. Vehicle at Day 21)” value in [5] was −61%.

B2: M863: TEM8 monoclonal antibody (hIgG1); VH SEQ ID NO:7, VL SEQ ID NO:8 (antibody, V domains shown)
VH: EVQLVETGAEVKKPGASVKVSCKASGYTFTGYYMHWVRQAPGQGLEWMGWINPTSGSTNYAQKFQGRVTMTRDTSISTAYMELSGLRSDDTAVYYCVRDPGSPKWLAFDPWGQGTLVTVSS
VL: DIQLTQSPSSLSASVGDRVTITCRASRAISRYLNWYQQKPGKAPKLLIYAASSLQSGVSSRFSGSGSGTEFTLTISSLQPEDFATYFCQQTYSPPITFGQGTRLEIKR
modifications: TEM863 mAb VH; TEM863 mAb VL
Take B2: the results for the AUCI in series [3] (5 mg/kg), in series [4] (5 mg/kg) and in series [4] (15 mg/kg) were 1330.847 µg·h/mL, 1425.735 µg·h/mL and 7272.672 µg·h/mL, respectively. In addition, the AUCT in series [3] (5 mg/kg) worked out at 1330.742 µg·h/mL; in series [3] (15 mg/kg) it was 10721.535 µg·h/mL; in series [4] (5 mg/kg), 1425.565 µg·h/mL; in series [4] (15 mg/kg) it was 7271.7 µg·h/mL.

B3: M830 Fc S239D:I332E double mutant: M830 with Fc substitutions S239D and I332E made to increase ADCC (antibody)
heavy: EVQLVESGGGVVQPGRSVRLSCAASGFTFSTYTMHWVRQAPGKGLEWVAIISNDGSNKYYADPVRGRFTISRDNSKNTLYLQMNSLRAEDTAVYYCVRGSSWYRGNWFDPWGQGTLVTVSS
VL: DIQMTQSPSSLSASVGDRVTIACRASQTISRYLNWYQQKPGKAPKLLIYAASSLQSGVSSRFSGSGSGTEFTLTISSLQPEDFATYFCQQTYSPPITFGQGTRLEIKR
modifications: left off: a dimerising Fc or GST
notes: M830 with Fc substitutions S239D and I332E made to increase ADCC
With B3, the “binding to FcγRIIIa (CD16a)” value in the series with FcγRIIIa (CD16a) is “significantly enhanced binding”.
